{"source": "paper PMC2259325", "about": "“Hepatitis C virus NS5A protein binds the SH3 domain of the Fyn tyrosine kinase with high affinity: mutagenic analysis of residues within the SH3 domain that contribute to the interaction” (Virology Journal, 2008)", "target": "T1, NS5A(Δ32), N-terminally truncated hepatitis C virus non-structural 5A protein (hepatitis C virus (genotype 1b, J4 …, UniProt O92972 2005-2419))", "T1 construct": "source: E. coli BL21 pLysS (DE3), purified (Ni-NTA, gel filtration on Superdex75)", "T1 sequence": "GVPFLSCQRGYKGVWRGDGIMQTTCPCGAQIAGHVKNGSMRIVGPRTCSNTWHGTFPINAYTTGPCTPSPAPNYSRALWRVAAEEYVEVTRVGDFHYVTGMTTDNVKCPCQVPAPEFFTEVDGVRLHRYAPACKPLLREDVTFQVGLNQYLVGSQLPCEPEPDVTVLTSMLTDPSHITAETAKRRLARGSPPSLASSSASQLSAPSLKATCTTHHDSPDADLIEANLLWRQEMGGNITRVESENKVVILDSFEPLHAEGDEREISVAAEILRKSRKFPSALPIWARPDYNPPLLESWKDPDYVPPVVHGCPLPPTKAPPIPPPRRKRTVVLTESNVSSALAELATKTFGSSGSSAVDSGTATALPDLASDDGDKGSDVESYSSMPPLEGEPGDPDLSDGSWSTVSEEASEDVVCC", "experiment": "SPR; Biacore 3000, HBS buffer (10 mM Hepes-NaOH pH 7.4, 150 mM NaCl, 0.005% Tween-20), 25°C; GST-SH3 captured on CM5 chip via amine-coupled anti-GST antibody; NS5A 3 μM - 100 nM flowed over, in triplicate; 1:1 Langmuir fit", "conditions": "both partners purified"}
{"binder": "GST-Fyn SH3 domain fusion protein (wild type) (domain or fragment, source: expressed and purified as previously described [6]) not shown", "values": [{"measurement": "koff", "result": 0.00308, "unit": "s⁻¹"}, {"measurement": "kon", "result": 4930, "unit": "M⁻¹ s⁻¹"}]}
